For this assay, the target named is GFP-ABCG4 (UniProt Q9H172-1 1-646). In words: co-IP; HEK293 co-transfected with the GFP-tagged and the untagged protein (untagged in excess), lysed 24 h after transfection in 50 mM Tris pH 7.4, 150 mM NaCl, 0.5% NP-40; precipitated with anti-GFP on protein G-sepharose, 2 h at 4°C; Western blot of the precipitate. To be noted: partners not purified. On the technique in general: Immunoblotting shows a protein as a band on a membrane.
Sequence of GFP-ABCG4 (Q9H172 whole entry): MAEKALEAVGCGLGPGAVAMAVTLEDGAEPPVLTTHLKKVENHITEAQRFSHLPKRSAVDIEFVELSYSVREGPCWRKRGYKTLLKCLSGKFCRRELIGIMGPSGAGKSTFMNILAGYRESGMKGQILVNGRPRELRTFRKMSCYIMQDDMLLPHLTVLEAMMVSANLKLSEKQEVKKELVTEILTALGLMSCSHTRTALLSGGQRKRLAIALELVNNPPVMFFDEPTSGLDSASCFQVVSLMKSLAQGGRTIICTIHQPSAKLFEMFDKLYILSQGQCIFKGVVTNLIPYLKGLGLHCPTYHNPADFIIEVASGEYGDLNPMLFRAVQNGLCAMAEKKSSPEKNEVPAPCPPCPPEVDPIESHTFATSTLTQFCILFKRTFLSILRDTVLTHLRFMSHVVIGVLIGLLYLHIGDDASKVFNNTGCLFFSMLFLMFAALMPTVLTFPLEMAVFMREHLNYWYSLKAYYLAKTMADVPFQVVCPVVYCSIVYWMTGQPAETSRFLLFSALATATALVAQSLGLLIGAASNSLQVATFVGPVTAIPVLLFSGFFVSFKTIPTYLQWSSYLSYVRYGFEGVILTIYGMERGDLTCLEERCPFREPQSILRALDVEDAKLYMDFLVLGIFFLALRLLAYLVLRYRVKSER

B1: ABCG4 (wild type, untagged) (natural protein)
chain: not shown
notes: the whole cDNA was probably expressed; also called wt ABCG4; source: HEK293, transfected (Fugene HD), in lysate
One may read the stoichiometry N as the number of molecules, sites or subunits per partner or assembly. For the molecule B1, the “stoichiometry N” value was roughly 1.

These data come from PMC4882005, “Functional Cooperativity between ABCG4 and ABCG1 Isoforms” (PLoS ONE, 2016).
